From patent US20100254975A1 (Amgen, published 2010) come the findings set out here.

Assay [1] concerns the target a4b7(R213S) (human) (UniProt P13612). The assay is described as follows: FACS on transfected 293 cells, 1 microG/ml, PE anti-human IgG; control.
The target in assay [2] is a4(V824A)b7 (human) (UniProt P13612). The assay is described as above.
For assay [3], the target named is a4b7(G629S) (human) (UniProt P13612). The assay is described as above.
In assay [4] the target is a4b7(E97V) (human) (UniProt P13612). The assay is described as above.
Sequence of a4b7(E97V) (human) (P13612 34-1032, chain 1 of 2): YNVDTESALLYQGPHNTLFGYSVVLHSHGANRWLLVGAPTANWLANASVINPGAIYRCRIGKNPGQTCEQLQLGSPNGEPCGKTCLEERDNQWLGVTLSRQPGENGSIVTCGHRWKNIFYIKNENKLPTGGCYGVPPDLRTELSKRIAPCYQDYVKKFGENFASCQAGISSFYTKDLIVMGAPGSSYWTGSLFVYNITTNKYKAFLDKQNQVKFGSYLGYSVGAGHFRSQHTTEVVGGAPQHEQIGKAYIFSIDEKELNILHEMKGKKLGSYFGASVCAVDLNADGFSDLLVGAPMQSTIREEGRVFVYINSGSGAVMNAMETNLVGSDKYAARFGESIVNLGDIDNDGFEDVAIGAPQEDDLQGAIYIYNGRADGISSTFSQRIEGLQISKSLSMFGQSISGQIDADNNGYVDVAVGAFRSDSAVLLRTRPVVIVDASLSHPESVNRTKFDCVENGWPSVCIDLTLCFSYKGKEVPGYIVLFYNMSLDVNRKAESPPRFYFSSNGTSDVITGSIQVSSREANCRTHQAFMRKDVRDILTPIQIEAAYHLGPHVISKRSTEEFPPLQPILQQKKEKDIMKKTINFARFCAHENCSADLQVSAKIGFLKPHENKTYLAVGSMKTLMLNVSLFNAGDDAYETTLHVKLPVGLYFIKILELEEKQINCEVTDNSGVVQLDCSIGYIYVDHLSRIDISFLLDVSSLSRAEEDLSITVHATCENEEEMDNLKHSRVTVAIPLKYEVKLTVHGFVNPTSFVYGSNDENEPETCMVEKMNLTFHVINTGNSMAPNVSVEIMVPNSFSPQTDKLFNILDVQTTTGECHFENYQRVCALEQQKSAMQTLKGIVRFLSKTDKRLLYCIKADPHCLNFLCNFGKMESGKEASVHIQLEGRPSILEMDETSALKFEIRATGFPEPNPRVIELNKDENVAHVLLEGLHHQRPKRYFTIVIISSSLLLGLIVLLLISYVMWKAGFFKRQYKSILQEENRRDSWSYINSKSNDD
Sequence of a4b7(E97V) (human) (P26010 20-798 E97V, chain 2 of 2, further chain): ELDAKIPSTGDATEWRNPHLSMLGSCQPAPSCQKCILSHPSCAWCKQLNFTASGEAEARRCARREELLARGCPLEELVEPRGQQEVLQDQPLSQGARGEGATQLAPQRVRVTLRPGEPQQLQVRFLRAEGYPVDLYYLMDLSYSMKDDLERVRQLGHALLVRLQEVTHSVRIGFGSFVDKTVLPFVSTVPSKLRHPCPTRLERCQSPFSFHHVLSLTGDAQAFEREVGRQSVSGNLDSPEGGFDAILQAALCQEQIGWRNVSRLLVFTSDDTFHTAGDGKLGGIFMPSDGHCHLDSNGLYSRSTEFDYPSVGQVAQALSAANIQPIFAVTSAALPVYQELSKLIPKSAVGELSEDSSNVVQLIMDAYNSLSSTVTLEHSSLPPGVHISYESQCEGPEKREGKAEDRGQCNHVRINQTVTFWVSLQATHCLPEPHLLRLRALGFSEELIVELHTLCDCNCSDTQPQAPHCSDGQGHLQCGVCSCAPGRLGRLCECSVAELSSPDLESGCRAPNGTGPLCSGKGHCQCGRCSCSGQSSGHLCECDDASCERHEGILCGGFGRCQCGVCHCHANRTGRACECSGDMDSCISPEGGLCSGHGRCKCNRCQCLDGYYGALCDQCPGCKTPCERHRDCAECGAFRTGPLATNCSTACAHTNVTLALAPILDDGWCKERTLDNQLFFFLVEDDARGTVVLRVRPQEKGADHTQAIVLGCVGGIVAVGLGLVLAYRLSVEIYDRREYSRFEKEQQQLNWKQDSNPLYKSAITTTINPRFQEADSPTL
The target of assay [5] is a4(Q878R)b7 (human) (UniProt P13612). Described as above.
Sequence of a4(Q878R)b7 (human) (P13612 34-1032, chain 1 of 2): as the sequence (P13612 34-1032, chain 1 of 2) above
Sequence of a4(Q878R)b7 (human) (P26010 20-798, chain 2 of 2, further chain): as the sequence (P26010 20-798 E97V, chain 2 of 2, further chain) above, with V78E counted along it
Assay [6] deals with T1, human alpha4beta7 (human, UniProt P13612 34-1032; P26010 20-798). The description is as above.
T1 sequence (P13612 34-1032, chain 1 of 2): as the sequence (P13612 34-1032, chain 1 of 2) above
T1 sequence (P26010 20-798, chain 2 of 2): as the sequence (P26010 20-798 E97V, chain 2 of 2, further chain) above, with V78E counted along it
For assay [7], the target named is T1, human alpha4beta7. The experiment in a line: FACS, biotinylated antibody on human CD4+CD45RA- memory T cells. As to the method: Human peripheral blood mononuclear cells (PBMC; fresh or frozen and thawed, for example in phosphate buffered saline with 2% FBS) are washed and resuspended in HEPES buffer (30 mM HEPES+[…]) with 1% BSA, with or without 1 mM MnCl₂ (depending on the experiment; Mn²⁺ is necessary for MAdCAM-1 binding) and plated into 96 well plates (10⁶cells/well). Cells are incubated with 10 microG/ml human IgG for 30 minutes on ice to block nonspecific binding. Cells are then incubated with serial dilutions of biotinylated anti-alpha4beta7 antibodies in 96 well plates for one hour on ice, followed by addition of 1:100 dilution of streptavidin-phycoerythrin (PE; Jackson ImmunoResearch Laboratories Inc., West Grove, Pa.), 4 microL CD3-Pacific Blue, CD4-PerCP-Cy5.5 and CD45RA-fluorescein isothiocyanate (FITC) (BD Biosciences, San Jose Calif.) for a final volume of 100 microL, and incubated for another hour on ice. Cells were washed twice with HEPES buffer (with or without MnCl₂, correspondingly) and then fixed in 200 microL HEPES buffer plus 0.5% paraformaldehyde (again, with or without MnCl₂, correspondingly). The percentage of positive alpha4beta7 antibody binding CD4+CD45RA-memory T cells is determined using a fluorescence activated cell sorter (FACS), for example, a BD™ LSR II benchtop flow cytometer (BD Biosciences, San Jose Calif.).

Assay [8] deals with T1, human alpha4beta7. The experiment in a line: FACS on transfected 293 cells, 1 microG/ml, PE anti-human IgG. An excerpt: Point mutant constructs representing amino acid altering SNPs (a4b7(E97V); a4b7(R213S); a4b7(G629S; a4(V824A)b7; a4(Q878R)b7) in the extracellular domains of both alpha4 and beta7 were generated. Each point mutant construct was transfected to 293 cells along with the wild-type partner expression construct. Transfected 293 cells were first stained with 1 microG/ml of human IgG or anti-alpha4beta7 antibody, washed with PBS, and the stained with phycoerytherin conjugated secondary antibody goat-anti human IgG. After washing with PBS, cells were analyzed by fluorescence activated cell sorting, for example, with a FACSCalibur™ (BD Biosciences, San Jose Calif.).

In assay [9] the target is T1, human alpha4beta7. The experiment in a line: KinExA, HUT78 cells expressing human alpha4beta7, lower bound of Kd. An excerpt: (§1) To measure cell binding affinity of human anti-alpha4beta7antibodies, a Kinetic Exclusion Assay which measures binding events in solution phase can be used to calculate the equilibrium dissociation constant, Kd. KinExA® Technology (Sapidyne Instruments, Boise, Id.) was used, substantially as described previously by Xie et. al. J. Imm, Methods 304:1 (2005) and Rathanaswami et. al. Anal. Biochem. 373:52 (2008). Briefly, HUT78 cells expressing human alpha4beta7 were titrated 1 in 3 from […] to ˜400 cells/mL and then equilibrated with a final concentration of either 2 or 30 pM of mAb 2F12 or 18A11 and 30 or 500 pM for 17C8 for 18 hours at 4° C. The free antibody remaining in the supernatant at equilibrium was measured by KinExA® technology by passing the supernatant over PMMA beads pre-coated with goat anti-human Fc and detected with goat anti-human (H+L) Cy5 (substantially as described by Rathanaswami et al. Biochem Biophys Research Commun:1004 (2005). The equilibrium dissociation constant (Kd) is obtained using KinExA® software by “n-curve analysis” which fits all of the given curves to a single Kdvalue simultaneously (Rathanswami et al. 2005 and Xie et al., supra).; results are shown below in Table 7.

The target in assay [10] is T1, human alpha4beta7. The assay is described as follows: KinExA, HUT78 cells expressing human alpha4beta7, upper bound of Kd.
Source text: as §1

The target in assay [11] is T1, human alpha4beta7. The experiment in a line: FACS competition, blocks biotinylated MAdCAM-1-Fc binding to human CD4+CD45RA- memory T cells. As to the method:
PBMC (fresh or frozen as described previously) are washed and resuspended in HEPES buffer (30 mM HEPES+[…]) with 1% BSA and 1 mM MnCl. to a final concentration of 10⁷cells/ml. Cells are blocked as described previously; after blocking, cells are incubated with a serial dilution of anti-alpha4beta7 antibody (or appropriate control) in 96 well plates for 30 minutes on ice, and then with 0.3 microG/ml biotinylated MAdCAM-1-Fc protein for another one hour.
After two washes in HEPES buffer with 1 mM MnCl, cells are treated with 1:100 dilution of streptavidin-PE, 4 microL CD3-Pacific Blue, CD4-PerCP-Cy5.5 and CD45RA-FITC as described previously, in a final volume of 100 microL. After one hour incubation on ice, cells are washed twice with HEPES buffer with 1 mM MnCl and then fixed in 200 microL buffer plus 0.5% paraformaldehyde. The percentage of positive MAdCAM-1-Fc binding CD4+CD45RA-memory T cells is determined by fluorescence activated cell sorter (FACS) analysis, as described previously.

Assay [12] has as its target T1, human alpha4beta7. The experiment in a line: cell-based or functional assay.
Assay [13] concerns the target a4b7(R213S) (human) (UniProt P13612). The assay is described as follows: FACS on transfected 293 cells, 1 microG/ml, PE anti-human IgG.
In assay [14] the target is a4(V824A)b7 (human) (UniProt P13612). Described as above.
Assay [15] concerns the target a4b7(G629S) (human) (UniProt P13612). Described as above.
Assay [16] deals with a4b7(E97V) (human) (UniProt P13612). Described as above.
Assay [17] addresses a4(Q878R)b7 (human) (UniProt P13612). Described as above.
Assay [18] concerns the target T1, human alpha4beta7. The assay is described as follows: KinExA, HUT78 cells expressing human alpha4beta7, n-curve analysis.
Source text: as §1
(In general: Kinetic exclusion samples the free partner from a solution-phase mixture.)

Sequence of a4(V824A)b7 (human) (P13612 34-1032 V824A, chain 1 of 2): as the sequence (P13612 34-1032, chain 1 of 2) above, with V791A counted along it
Sequence of a4(V824A)b7 (human) (P26010 20-798, chain 2 of 2, further chain): as the sequence (P26010 20-798 E97V, chain 2 of 2, further chain) above, with V78E counted along it
Sequence of a4b7(R213S) (human) (P13612 34-1032, chain 1 of 2): as the sequence (P13612 34-1032, chain 1 of 2) above
Sequence of a4b7(R213S) (human) (P26010 20-798 R213S, chain 2 of 2, further chain): as the sequence (P26010 20-798 E97V, chain 2 of 2, further chain) above, with V78E, R194S counted along it
Sequence of a4b7(G629S) (human) (P13612 34-1032, chain 1 of 2): as the sequence (P13612 34-1032, chain 1 of 2) above
Sequence of a4b7(G629S) (human) (P26010 20-798 G629S, chain 2 of 2, further chain): as the sequence (P26010 20-798 E97V, chain 2 of 2, further chain) above, with V78E, G610S counted along it

For the molecule human IgG (antibody), the fluorescence staining intensity (geometric mean) in assay [1] was determined as 7; in [2] it was 7; in [3] it was 7; in assay [4], 7; in assay [5], 7; in [6] it was 8.

B1: 17C8 (antibody, V domains shown)
VH: QVQLVESGGGLVKPGGSLRLSCAASGFTFSDYYMSWIRQAPGKGLEWLSYISNSGSAMYYADSVKGRFTISRDNARNSLYLQMNSLRAEDTAVYYCAREYSSGWFFFESWGQGTLVTVSS
VL: EIVMTQSPATLSVSPGERATLSCRASQSVSSNLVWYQQKPGQAPRLLIYGASTRATGIPARFSGSGSGTDFTLTISSLQSEDFAVYYCQQYDDWPPLTFGGGTTVEIK
notes: Fully human monoclonal from XenoMouse (human IgG2 or IgG4); kappa light chain; also called 17C8K; 17C8H
What is called EC50 is the concentration giving half of the maximal effect. A low value points to an effect from little substance. By IC50 is commonly meant the concentration needed to halve the response being measured. The term Kd denotes a measure of binding affinity in units of concentration. Read a low Kd as higher affinity. In assay [7], B1 had an EC50 of 22.9 ng/mL. Besides, the “fluorescence staining intensity (geometric mean)” value (shortened to “fluorescence staining intensity”) in assay [8] came out at 93; in [13], 49; in assay [14] it was 74; in assay [15] it was 58; in assay [16] it was 96; in [17], 51. The Kd low in assay [9] was determined as 12.1 pM. Also, the Kd high in assay [10] came out at 74.5 pM. The molecule further had an IC50 in assay [11] of 31.1 ng/mL. Also, the “HUT78 Adhesion IC50” value in [12] was found to be 6.8 ng/mL. In addition, the affinity in [18], expressed as Kd, was 29.4 pM.

B2: 2F12 (antibody, V domains shown)
VH: QVQLVQSGAEVKKPGASVKVSCKVSGYTVTDLSMHWVRQAPGKGLEWMGGFDPQDGETIYAQKFQGRVTMTEDTSTDTAYMELRSLRSEDTAVYYCTTESSSAWFDPWGQGTLVTVSS
VL: DIQMTQSPSSVFASVGDRVTITCRASQGISSWLAWYQQKPGKAPNLLIYGASSLQNGVPLRFSGSGSGTDFTLTISSLQPEDFATYYCQQANSFPWTFGQGTKVEIK
notes: Fully human monoclonal from XenoMouse (human IgG2 or IgG4); kappa light chain; also called 2F12K; 2F12H
B2 had an EC50 in assay [7] of 3.3 ng/mL. Further, the “fluorescence staining intensity” value is 129 in assay [8]; 37 in assay [13]; 112 in assay [14]; 80 in assay [15]; 134 in assay [16]; 73 in assay [17]. Also, the Kd low in assay [9] came to 1.94 pM. In addition, the Kd high in [10] came out at 11.1 pM. Also, the IC50 in assay [11] turned out to be 4.6 ng/mL. Also, the “HUT78 Adhesion IC50” value in assay [12] turned out to be 11.4 ng/mL. In [18], this molecule gave a Kd of 4.56 pM.

B3: 18A11 (antibody, V domains shown)
VH: QVQLVQSGAEVKKPGASVKVSCKVSGYTLSDLSIHWVRQAPGKGLEWMGGFDPQDGETIYAQKFQGRVTMTEDTSTDTAYMELSSLKSEDTAVYYCATGSSSSWFDPWGQGTLVTVSS
VL: DIQMTQSPSSVSASVGDRVTITCRASQGISSWLAWYQQKPGKAPKLLIYGASNLESGVPSRFSGSGSGTDFTLTISSLQPEDFANYYCQQANSFPWTFGQGTKVEIK
notes: Fully human monoclonal from XenoMouse (human IgG2 or IgG4); kappa light chain; also called 18A11K; 18A11H
For the molecule B3, a half-maximal effect in assay [7] (EC50) was put at 4.7 ng/mL. Besides, the “fluorescence staining intensity” value in assay [8] came to 92; in [13], 30; in assay [14] it was 82; in [15] it was 63; in assay [16], 105; in assay [17], 56. In assay [9], this molecule showed a Kd low of 0.23 pM. The same molecule came in with a Kd high in [10] of 2.29 pM. In assay [11], this molecule showed a half-maximal inhibitory concentration (IC50) of 7.3 ng/mL. Also, the “HUT78 Adhesion IC50” value in [12] came to 7.4 ng/mL. In assay [18], binding was characterised by a dissociation constant (Kd) of 0.9 pM.
